Here are results for one molecule from PMC3458824, “Direct Observation of the Uptake of Outer Membrane Proteins by the Periplasmic Chaperone Skp” (PLoS ONE, 2012).

Substitutions are numbered along the chain they refer to. Names may count otherwise.

Holding throughout (test): FRET or BRET; stopped-flow FRET; Cy5 labeled OmpC mutant in 8 M urea mixed 1:20 with Cy3 labeled Skp mutant; both 0.03 µM final; 50 mM PBS pH 7.0, 100 mM NaCl, 0.01% Tween 20, 25°C; Cy5 emission, fitted to three exponentials
Details in all cases: both partners purified

One assay deals with T1, Skp-K55C-Cy3 (Escherichia coli, UniProt P0AEU7 21-161, K55C, Cy3 (Cy3-maleimide) on the introduced cysteine at 55).
T1 construct: Skp of Escherichia coli, each monomer 141 residues as printed; Extent of labeling greater than 90%; one dye on each of the three chains of the trimer; also called Cy3 labeled Skp mutant K55C; Skp-Cy3; source: E. coli BL21 (DE3), purified (Ni-NTA), labeled with Cy3-maleimide
T1 sequence (looked up): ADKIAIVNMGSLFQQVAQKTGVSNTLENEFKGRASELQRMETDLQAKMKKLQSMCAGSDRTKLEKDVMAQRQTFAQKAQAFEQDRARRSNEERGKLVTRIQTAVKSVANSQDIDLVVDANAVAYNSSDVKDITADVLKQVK

A further assay concerns the target T2, Skp-E82C-Cy3 (Escherichia coli, UniProt P0AEU7 21-161, E82C, Cy3 (Cy3-maleimide) on the introduced cysteine at 82).
T2 construct: Skp of Escherichia coli, each monomer 141 residues as printed; Extent of labeling greater than 90%; one dye on each of the three chains of the trimer; also called Cy3 labeled Skp mutant E82C; Skp-Cy3; source: E. coli BL21 (DE3), purified (Ni-NTA), labeled with Cy3-maleimide
T2 sequence (looked up): T1 sequence (looked up) with C55K, E82C

The target in another assay is T3, Skp-D128C-Cy3 (Escherichia coli, UniProt P0AEU7 21-161, D128C, Cy3 (Cy3-maleimide) on the introduced cysteine at 128).
T3 construct: Skp of Escherichia coli, each monomer 141 residues as printed; Extent of labeling greater than 90%; one dye on each of the three chains of the trimer; also called Cy3 labeled Skp mutant D128C; Skp-Cy3; source: E. coli BL21 (DE3), purified (Ni-NTA), labeled with Cy3-maleimide
T3 sequence (looked up): T1 sequence (looked up) with C55K, D128C

B1: OmpC-D25C-Cy5 (natural protein, Escherichia coli, UniProt P06996 22-367, looked up)
chain: AEVYNKDGNKLDLYGKVDGLHYFSCNKDVDGDQTYMRLGFKGETQVTDQLTGYGQWEYQIQGNSAENENNSWTRVAFAGLKFQDVGSFDYGRNYGVVYDVTSWTDVLPEFGGDTYGSDNFMQQRGNGFATYRNTDFFGLVDGLNFAVQYQGKNGNPSGEGFTSGVTNNGRDALRQNGDGVGGSITYDYEGFGIGGAISSSKRTDAQNTAAYIGNGDRAETYTGGLKYDANNIYLAAQYTQTYNATRVGSLGWANKAQNFEAVAQYQFDFGLRPSLAYLQSKGKNLGRGYDDEDILKYVDVGATYYFNKNMSTYVDYKINLLDDNQFTRDAGINTDNIVALGLVYQF
modifications: Cy5 (Cy5-maleimide) on the introduced cysteine at 25
notes: Outer membrane protein OmpC of Escherichia coli; 346 residues as printed; Extent of labeling greater than 90%; also called Cy5 labeled OmpC mutant D25C; source: E. coli BL21 (DE3), purified (Ni-NTA) in 8 M urea, unfolded, labeled with Cy5-maleimide
As for B1, the entries for the “time constant τ1 of the fast phase” value with Skp-K55C-Cy3, with Skp-E82C-Cy3 and with Skp-D128C-Cy3 were 73 ± 5.1 ms, 101 ± 6.9 ms and 143 ± 10 ms, respectively.
